Measured values from IntAct's records for PubMed 19098916.

Biological target: brr2_yeast BRR2 (UniProt P32639)
Sequence (P32639 whole entry): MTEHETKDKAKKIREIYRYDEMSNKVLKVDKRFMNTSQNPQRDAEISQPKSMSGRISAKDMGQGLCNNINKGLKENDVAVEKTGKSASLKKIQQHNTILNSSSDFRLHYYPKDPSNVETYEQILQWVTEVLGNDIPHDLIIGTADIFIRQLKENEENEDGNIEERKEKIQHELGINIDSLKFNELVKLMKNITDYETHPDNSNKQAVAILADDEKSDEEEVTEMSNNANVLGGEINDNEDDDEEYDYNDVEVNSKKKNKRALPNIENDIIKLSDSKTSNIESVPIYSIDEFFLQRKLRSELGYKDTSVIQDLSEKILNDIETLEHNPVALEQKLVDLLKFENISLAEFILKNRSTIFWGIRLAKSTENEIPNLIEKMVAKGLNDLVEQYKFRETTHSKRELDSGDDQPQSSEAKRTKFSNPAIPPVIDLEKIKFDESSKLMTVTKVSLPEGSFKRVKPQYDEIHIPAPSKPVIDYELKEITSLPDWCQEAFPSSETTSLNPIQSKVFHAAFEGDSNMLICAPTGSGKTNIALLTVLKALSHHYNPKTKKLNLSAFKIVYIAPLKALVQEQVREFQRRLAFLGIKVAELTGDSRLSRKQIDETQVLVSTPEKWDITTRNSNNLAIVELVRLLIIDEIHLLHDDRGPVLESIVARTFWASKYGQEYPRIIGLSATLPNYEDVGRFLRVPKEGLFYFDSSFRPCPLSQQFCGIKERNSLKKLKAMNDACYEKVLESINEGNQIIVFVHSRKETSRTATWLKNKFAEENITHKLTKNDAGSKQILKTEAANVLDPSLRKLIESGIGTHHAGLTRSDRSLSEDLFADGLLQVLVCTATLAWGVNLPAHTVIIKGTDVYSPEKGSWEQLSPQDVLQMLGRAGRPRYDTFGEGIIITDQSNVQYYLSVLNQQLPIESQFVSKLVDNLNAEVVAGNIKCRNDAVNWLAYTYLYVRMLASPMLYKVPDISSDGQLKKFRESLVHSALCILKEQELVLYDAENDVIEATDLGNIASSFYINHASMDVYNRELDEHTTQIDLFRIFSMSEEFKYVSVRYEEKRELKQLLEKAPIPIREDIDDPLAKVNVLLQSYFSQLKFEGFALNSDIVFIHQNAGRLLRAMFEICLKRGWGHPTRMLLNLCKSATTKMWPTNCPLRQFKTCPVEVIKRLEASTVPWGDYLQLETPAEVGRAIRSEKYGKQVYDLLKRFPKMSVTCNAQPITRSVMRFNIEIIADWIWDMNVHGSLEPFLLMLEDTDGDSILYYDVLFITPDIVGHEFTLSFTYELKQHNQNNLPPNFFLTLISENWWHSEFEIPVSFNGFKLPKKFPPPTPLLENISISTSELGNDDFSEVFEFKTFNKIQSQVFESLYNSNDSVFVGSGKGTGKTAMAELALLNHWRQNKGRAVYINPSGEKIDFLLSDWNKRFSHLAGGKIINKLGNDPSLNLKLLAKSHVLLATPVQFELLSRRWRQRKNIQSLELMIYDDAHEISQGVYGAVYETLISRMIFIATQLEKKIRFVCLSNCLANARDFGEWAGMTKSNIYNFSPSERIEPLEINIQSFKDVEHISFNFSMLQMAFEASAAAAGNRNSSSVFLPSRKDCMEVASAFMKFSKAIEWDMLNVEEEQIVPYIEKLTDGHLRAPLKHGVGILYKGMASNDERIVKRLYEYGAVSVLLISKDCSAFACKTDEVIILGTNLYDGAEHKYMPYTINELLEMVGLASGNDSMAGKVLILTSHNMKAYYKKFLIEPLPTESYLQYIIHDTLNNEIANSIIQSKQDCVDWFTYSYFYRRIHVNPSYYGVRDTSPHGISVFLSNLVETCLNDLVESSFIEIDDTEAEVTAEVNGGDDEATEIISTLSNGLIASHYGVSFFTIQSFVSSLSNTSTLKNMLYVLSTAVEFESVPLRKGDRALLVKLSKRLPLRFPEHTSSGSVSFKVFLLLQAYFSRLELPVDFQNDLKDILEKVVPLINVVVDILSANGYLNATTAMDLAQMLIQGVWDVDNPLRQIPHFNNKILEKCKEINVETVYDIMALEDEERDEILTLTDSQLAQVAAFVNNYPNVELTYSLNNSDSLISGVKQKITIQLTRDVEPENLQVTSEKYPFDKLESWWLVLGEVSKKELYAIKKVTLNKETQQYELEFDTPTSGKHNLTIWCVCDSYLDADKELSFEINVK

Chain of Pre-mRNA-splicing factor 8 (Saccharomyces cerevisiae), P33334 H2387P (P33334 whole entry H2387P): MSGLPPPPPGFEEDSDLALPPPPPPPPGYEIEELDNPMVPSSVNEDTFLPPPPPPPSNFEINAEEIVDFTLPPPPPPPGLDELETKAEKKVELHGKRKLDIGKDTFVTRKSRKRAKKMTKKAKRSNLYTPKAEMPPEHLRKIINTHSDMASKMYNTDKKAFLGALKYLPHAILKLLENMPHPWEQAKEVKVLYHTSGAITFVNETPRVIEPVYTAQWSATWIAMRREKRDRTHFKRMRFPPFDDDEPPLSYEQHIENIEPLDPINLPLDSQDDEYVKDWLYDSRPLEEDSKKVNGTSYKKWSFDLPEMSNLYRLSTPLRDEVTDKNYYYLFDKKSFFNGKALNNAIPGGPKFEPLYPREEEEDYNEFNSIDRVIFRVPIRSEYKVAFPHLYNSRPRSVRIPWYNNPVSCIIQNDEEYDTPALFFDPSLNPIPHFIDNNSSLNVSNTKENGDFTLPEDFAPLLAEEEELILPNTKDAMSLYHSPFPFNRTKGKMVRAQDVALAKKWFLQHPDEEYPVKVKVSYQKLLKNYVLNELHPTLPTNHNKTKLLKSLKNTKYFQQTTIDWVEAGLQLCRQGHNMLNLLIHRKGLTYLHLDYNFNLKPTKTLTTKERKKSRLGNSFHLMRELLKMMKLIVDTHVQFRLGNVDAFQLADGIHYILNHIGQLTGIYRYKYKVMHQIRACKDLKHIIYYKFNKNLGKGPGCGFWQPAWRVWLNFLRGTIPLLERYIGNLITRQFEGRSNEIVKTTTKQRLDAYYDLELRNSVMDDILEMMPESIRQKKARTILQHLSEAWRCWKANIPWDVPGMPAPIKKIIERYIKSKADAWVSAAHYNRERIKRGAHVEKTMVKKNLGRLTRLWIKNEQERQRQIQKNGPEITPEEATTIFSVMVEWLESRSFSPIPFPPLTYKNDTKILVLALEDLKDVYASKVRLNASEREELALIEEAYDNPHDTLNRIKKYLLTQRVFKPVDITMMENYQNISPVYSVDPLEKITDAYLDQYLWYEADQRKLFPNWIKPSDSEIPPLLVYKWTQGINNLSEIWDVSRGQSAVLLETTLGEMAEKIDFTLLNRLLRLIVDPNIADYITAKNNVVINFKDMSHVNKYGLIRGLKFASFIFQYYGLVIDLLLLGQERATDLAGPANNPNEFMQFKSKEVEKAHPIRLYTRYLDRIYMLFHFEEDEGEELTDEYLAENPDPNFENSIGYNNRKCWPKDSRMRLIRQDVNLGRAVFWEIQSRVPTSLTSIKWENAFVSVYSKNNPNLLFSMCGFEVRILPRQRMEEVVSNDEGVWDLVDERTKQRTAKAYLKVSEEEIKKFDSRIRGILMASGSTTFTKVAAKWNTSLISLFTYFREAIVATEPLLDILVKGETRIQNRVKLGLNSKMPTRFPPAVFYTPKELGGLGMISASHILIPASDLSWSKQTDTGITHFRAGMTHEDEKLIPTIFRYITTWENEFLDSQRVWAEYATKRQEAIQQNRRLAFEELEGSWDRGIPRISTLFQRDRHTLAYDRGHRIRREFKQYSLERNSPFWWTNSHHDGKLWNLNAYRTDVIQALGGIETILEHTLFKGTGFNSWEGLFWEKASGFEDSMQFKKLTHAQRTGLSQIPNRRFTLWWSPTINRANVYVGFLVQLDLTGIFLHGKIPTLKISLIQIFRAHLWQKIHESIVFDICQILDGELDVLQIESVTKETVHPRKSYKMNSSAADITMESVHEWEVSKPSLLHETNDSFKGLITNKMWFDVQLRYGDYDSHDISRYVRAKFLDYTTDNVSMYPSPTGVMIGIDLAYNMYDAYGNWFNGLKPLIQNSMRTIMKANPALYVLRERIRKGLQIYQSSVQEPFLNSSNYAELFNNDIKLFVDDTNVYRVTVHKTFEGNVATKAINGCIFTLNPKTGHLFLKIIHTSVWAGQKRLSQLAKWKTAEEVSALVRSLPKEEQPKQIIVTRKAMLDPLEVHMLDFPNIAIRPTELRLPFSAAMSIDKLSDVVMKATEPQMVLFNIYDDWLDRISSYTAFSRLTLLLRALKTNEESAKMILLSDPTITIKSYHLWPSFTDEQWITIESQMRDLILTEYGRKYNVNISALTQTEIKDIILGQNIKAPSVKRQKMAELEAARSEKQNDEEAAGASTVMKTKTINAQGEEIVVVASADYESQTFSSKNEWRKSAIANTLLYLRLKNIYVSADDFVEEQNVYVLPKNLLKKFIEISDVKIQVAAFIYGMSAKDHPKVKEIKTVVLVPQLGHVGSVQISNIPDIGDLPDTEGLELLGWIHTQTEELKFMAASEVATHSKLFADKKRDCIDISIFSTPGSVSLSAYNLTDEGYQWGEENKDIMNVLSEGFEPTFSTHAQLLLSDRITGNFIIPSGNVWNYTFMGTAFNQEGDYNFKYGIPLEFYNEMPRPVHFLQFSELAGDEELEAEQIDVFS

| effect of a mutation on the interaction | Substance |
| --- | --- |
| disrupting interaction strength | Pre-mRNA-splicing factor 8 (Saccharomyces cerevisiae), P33334 H2387P |
| disrupting interaction strength | Pre-mRNA-splicing factor 8 (Saccharomyces cerevisiae), P33334 H2387R |
| disrupting interaction strength | Pre-mRNA-splicing factor 8 (Saccharomyces cerevisiae), P33334 R2388G |
| disrupting interaction strength | Pre-mRNA-splicing factor 8 (Saccharomyces cerevisiae), P33334 R2388K |
